Six substances from publication PMC6993239 can be followed below.

The target in assay [1] is histidine-tagged mouse FcγRI (mouse) (UniProt P26151). Put plainly: SPR; Biacore T200; His-tagged muFcγRI (2.4 nM) captured on an anti-histidine antibody CM5 chip; pertuzumab or conjugates as analyte, association and dissociation 120 s each; steady-state analysis. On the technique in general: SPR reads the build-up and loss of mass on a sensor chip optically.
The target of assay [2] is recombinant human FcγRI, histidine-tagged (human) (UniProt P12314). Put plainly: SPR; Biacore T200; His-tagged huFcγRI (0.8 nM) captured on an anti-histidine antibody CM5 chip; pertuzumab or conjugates 0.78-100 nM as analyte, 5 min association, 5 min dissociation, 30 μL/min; HBS-P+ with 50 μM EDTA; 1:1 fit (RI set to 0).
Sequence of UniProt P12314 (P12314 16-292): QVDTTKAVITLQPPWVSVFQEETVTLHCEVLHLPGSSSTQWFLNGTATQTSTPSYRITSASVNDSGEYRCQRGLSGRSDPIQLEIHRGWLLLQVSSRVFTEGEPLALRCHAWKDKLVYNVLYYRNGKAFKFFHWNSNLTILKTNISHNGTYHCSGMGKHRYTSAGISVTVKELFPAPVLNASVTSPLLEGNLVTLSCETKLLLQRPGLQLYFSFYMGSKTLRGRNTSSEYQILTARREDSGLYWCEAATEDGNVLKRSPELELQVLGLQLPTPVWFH
Assay [3] has the same target. Put plainly: SPR.

Sequence of UniProt P26151 (P26151 25-297): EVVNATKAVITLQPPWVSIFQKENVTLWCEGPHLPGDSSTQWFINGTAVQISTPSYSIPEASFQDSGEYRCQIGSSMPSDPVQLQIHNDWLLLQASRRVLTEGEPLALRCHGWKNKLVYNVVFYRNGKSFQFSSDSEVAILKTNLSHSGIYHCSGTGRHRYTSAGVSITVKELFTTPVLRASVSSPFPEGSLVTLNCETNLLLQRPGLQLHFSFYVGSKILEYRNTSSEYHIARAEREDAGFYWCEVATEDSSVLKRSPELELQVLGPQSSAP

As usually defined, the Kd is a measure of binding affinity in units of concentration. DFO-^nsspertuzumab (antibody) displayed a dissociation constant (Kd) in assay [1] of 250 nM. In addition, in assay [2], the dissociation constant Kd was determined as 4.1 nM and the interaction half-time was 7.4 min.

What is called koff is the first-order rate constant of dissociation. In the case of DFO-^nsspertuzumab, the off-rate (koff) in assay [3] was 0.00156 s⁻¹.

In turn, DFO-^sspertuzumab-βGal (antibody) showed an equilibrium dissociation constant (Kd) in assay [1] of 210 nM. The interaction half-time in assay [2] is 8 min.

In the case of DFO-^sspertuzumab-EndoS, in assay [3], the koff came out at 0.00387 s⁻¹.

Consider native pertuzumab (antibody), for which the equilibrium dissociation constant (Kd) in assay [1] came out at 250 nM. Further, the interaction half-time in assay [2] was found to be 7.3 min.

As to DFO-^sspertuzumab-EndoS (antibody), the Kd in assay [1] was determined as 1100 nM. In addition, in assay [2], the Kd came to 17.4 nM and the interaction half-time was determined as 3 min.
